Source: the MegaScale stability set (Tsuboyama et al. 2023)

B1: EHEE_rd4_0086 (parent)
chain: EIHIRTNGEEQARKVYKMLAKRNYDVKIEQHNGQWVVTAS

Variants of: B1
Experiment: folding stability dG (cDNA display proteolysis); higher = more stable
Settings: PBS, room temperature

Folding stability dG [kcal/mol] of substitutions, site by site:
Q30: T 1.49, V 2.22, L 1.93, R 1.81, M 1.81, N 2.01, P 0.717, D 1.07, Y 2.3, E 1.85, H 1.93, I 2.1, W 1.8, K 1.88, S 1.58, C 2.32, G 0.999, F 2.38, A 1.33
M18: G 0.727, V 1.48, D 1.08, R 1.25, Q 1.5, N 1.14, T 1.12, Y 2.37, H 1.54, K 1.37, S 1.35, W 2.61, E 1.67, F 2.25, I 1.81, A 1.84, L 1.82
G33: A 0.852
V26: R -0.177, L 0.829, F -0.182, S -0.013, W 0.204, Y -0.299, P 1.02, T 0.533, G -0.027, A 1.1, I 1.09, M 0.338
K17: T 1.91, I 2.03, G 1.33, W 2.11, M 2.15, R 2.02, V 1.91, L 2.08, C 3.19, H 1.83, Y 1.99, Q 2.1, E 2.37, D 2.06, F 1.86, S 1.77, P -0.583, N 2.07, A 2.25
Y24: S 0.914, L 1.69, R 1.3, F 1.93, N 0.737, H 1.18, A 1.08, T 0.886, P 0.856, W 2, E 0.458, K 1.25, G 0.656, D 0.514, V 1.29, I 1.42, M 1.71, Q 0.902
N23: T 0.87, S 1.55, C 2.9, L 1.74, F 2.79, W 2.36, A 1.69, M 1.89, K 1.68, V 0.904, E 1.12, D 1.33, H 2.35, Y 2.86, R 1.68, I 0.912, G 3.46, Q 1.67, P 0.533
R13: D 0.502, H 1.32, Y 1.85, Q 1.47, E 1.04, I 1.67, G 0.376, W 2.33, V 1.27, K 1.92, L 1.89, S 0.759, F 1.5, M 1.79, N 1.36, T 1.18
A20: L 2.51, W 1.46, S 1.78, K 2.43, R 2.14, H 1.36, Q 2.16, F 1.58, Y 1.55, V 2.18, D 0.486, G 0.826, M 2.21, E 1.52, I 2.17, T 1.75, N 0.982
K27: A 1.26, T 1.68, G 0.682, H 1.66, Q 1.44, R 1.95, M 1.32, L 1.12, N 1.16, S 1.5, E 0.722, V 1.45, D 0.311, W 1.52, F 1.33, Y 1.45, I 1.45
D25: F 2.14, S 1.99, M 2.21, H 2.15, N 2.27, V 2.31, I 2.34, P 1.08, E 1.91, Q 2.23, W 1.89, L 2.21, R 2.25, T 2.25, K 2.36, Y 2.09, A 1.96, G 1.22
N32: V 0.762, P 0.291, D 1.9, Y 1.38, A 1.7, W 1.12, T 0.816, G 1.86, K 1.54, S 1.38, I 0.67, M 1.64, L 1.51, R 1.3, F 1.45, H 1.55, E 1.76, Q 1.65
I28: A 0.154, R -0.747, S -0.437, Y 0.682, M 1.69, W 0.131, L 1.56, V 1.29, T -0.114, Q -0.461, F 0.516, K -0.269
L19: M 1.27, Y 1.35, H -0.775, I 0.108, A -0.32, W 1.02, V -0.352, F 1.72
H31: W 2.15, R 1.98, F 2.11, M 2.03, P 0.168, G 0.849, T 1.71, K 2.04, Y 2.03, S 1.78, I 2.43, L 2.12, N 1.72, V 2.24, E 1.85, Q 1.95, A 1.67, C 2.09, D 1.78
Y16: W 1.38, R 1.15, K 1.07, G 1.88, T 0.377, M 2.15, Q 1.38, E 0.776, S 1.5, L 1.55, F 1.93, N -0.095, A 2.76, H 1.03, I 0.973, V 1.23
K21: S 2.09, M 2.15, P -0.238, L 2.06, D 2.13, F 1.7, I 1.82, T 1.67, E 2, C 2.71, G 1.82, R 1.95, A 2.4, V 1.63, H 1.69, Y 1.61, Q 2.1, W 1.61, N 1.77
K14: W 2.35, Y 2.02, L 1.91, F 1.89, D 1.21, A 1.86, E 1.68, H 1.53, I 1.82, M 1.87, T 1.32, R 2.12, S 1.34, Q 1.8, G 0.786, N 1.29, V 1.42
E29: Q 1.82, Y 2.48, F 2.44, R 1.68, L 1.75, V 1.98, T 2.02, G 1.48, A 1.8, K 1.6, N 1.57, I 1.97, W 2.33, H 1.78, D 1.26, S 1.99, M 1.93
R22: N 1.45, Q 1.76, D 1.08, K 1.85, S 1.37, M 2.32, I 1.31, H 1.86, E 1.29, A 1.84, L 2.45, V 1.01, G 1.16, Y 2.05, P -0.563, F 2.04, T 1.16, W 2.29
V15: I 2.49, D -0.861, K 0.551, A 1.12, C 2.6, M 1.62, W 2.43, L 2.35, H 0.525, R 0.424, F 1.93, Y 1.97, Q 0.153, T 0.624, E -0.159, S -0.033, N -0.279
